{"source": "paper PMC8499627", "about": "(Antibody Therapeutics, 2021)", "conditions_in_all_cases": "both partners purified", "key": {"[1]": {"target": "T1, SEQ13 peptide (HBsAg aa 113-135) (Hepatitis B virus, strain  …, UniProt P03141)", "T1 construct": "source: synthetic peptide, bought: Sangon Biotech", "T1 chain": "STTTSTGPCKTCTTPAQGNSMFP", "assay": "ELISA; indirect ELISA kits (Beijing Wantai) on HBsAg, CR-T3-SEQ13 or SEQ13 peptides; purified antibodies titrated, EC50s"}, "[2]": {"target": "T2, Recombinant HBsAg protein (hepatitis B surface antigen) (Hepatitis B virus, strain ; …, UniProt P03141)", "T2 construct": "source: bought: Beijing Wantai Biological Pharmacy Enterprise", "assay": "ELISA; indirect ELISA kits (Beijing Wantai) on HBsAg, CR-T3-SEQ13 or SEQ13 peptides; purified antibodies titrated, EC50s"}, "[3]": {"target": "T2, Recombinant HBsAg protein (hepatitis B …)", "assay": "SPR; Biacore 3000, 10°C; HBsAg immobilised (2 400 RU, sodium acetate pH 4.5); antibody 1.56-100 nM, 50 μL/min, 90 sec association, 600 sec dissociation"}}}
{"binder": "C3-13 (antibody, V domains shown, cynomolgus monkey VH of monkey #3; cynomolgus monkey VL of monkey #3; Monkey-human chimeric antibody, human IgG1 constant regions; source: HEK-293F, transfected, purified (protein A)) VH: QVQLQESGPRLVKSSETLPLTCAVSGASNSSNYWSWIRQPPGKGLEWIGRIYGNSGSTDYNPSLKSRVSISTDTSKNQFSLKLSSVTAADTAVYFCARGSVYTYSWGQGVLVTVSS VL: DIQMSQSPDSLAVSLGERVTINCKSSQSLLYSSNNKNYLAWYQQKPGQAPKLLFYWASTRESGVPNRFSGSGSGTDFTLTIRGLQAEDVAVYYCQQHYTTPLTFGQGTKVEIK", "values": [{"measurement": "binding result", "setting": "[1]", "value": "binds"}, {"measurement": "binding result", "setting": "[2]", "value": "binds"}]}
{"binder": "hu1-23 (antibody, V domains shown, humanized VH: CDRs (IMGT) of C1-23 grafted on the most closely related human germline; humanized VK: CDRs (IMGT) of C1-23 grafted on the most closely related human germline; Human IgG1 CH and CK constant regions; also called humanized 1-23; Humanized antibody hu1-23; source: HEK-293F, transfected, purified (protein A)) VH: QVQLQESGPGLVKPSETLSLTCTVSGGSITSNFWSWIRQPPGKGLEWIGYISGSGTYTDYNPSLKSRVTISVDTSKNQFSLKLSSVTAADTAVYYCARSHDYGSNDYAFDFWGQGTTVTVSS VL: DIQMTQSPSSLSASVGDRVTITCRATQDISSSLNWYQQKPGKAPKLLIYYANRLQSGVPSRFSGSGSGTDFTLTISSLQPEDFATYYCQQYHSLPLTFGGGTKVEIK", "values": [{"measurement": "Kd", "setting": "[3]", "value": 1.06, "unit": "nM"}, {"measurement": "binding result", "setting": "[1]", "value": "binds"}]}
{"binder": "C1-23 (antibody, V domains shown, cynomolgus monkey VH of monkey #1; cynomolgus monkey VL of monkey #1; Monkey-human chimeric antibody, human IgG1 constant regions; parent of hu1-23; source: HEK-293F, transfected, purified (protein A)) VH: QVQLQESGPGLVKPSEILSVTCSVSGGSITSNFWSWIRQPPGKGLEWIGYISGSGTYTDYNPSLRSRVTLSVDTSKNQLSLKLSSVTAADTAVYYCARSHDYGSNDYAFDFWGQGLRVTVSS VL: EIVMTQSPSSLSASVGDRVTITCRATQDISSSLNWYQQKPGKAPQLLIYYANRLESGVPSRFRGSGSGTEFTLTISSLQPEDFTTYYCQQYHSLPLTFGGGTKVEIK", "values": [{"measurement": "binding result", "setting": "[1]", "value": "binds"}, {"measurement": "binding result", "setting": "[2]", "value": "binds"}]}
